The target of assay [1] is T1, monkey TIM-3 extracellular domain protein with hFc tag (cTIM-3-hFc) (monkey).
T1 construct: not shown: human IgG Fc fragment (hFc) of the pCpC vector
T1 chain: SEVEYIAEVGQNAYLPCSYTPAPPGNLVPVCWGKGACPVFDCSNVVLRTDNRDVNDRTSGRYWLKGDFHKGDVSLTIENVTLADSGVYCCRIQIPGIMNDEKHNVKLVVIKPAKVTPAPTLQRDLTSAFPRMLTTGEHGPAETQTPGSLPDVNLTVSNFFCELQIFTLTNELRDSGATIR
Description: ELISA, coated monkey TIM-3 ECD protein, 0 nM antibody. On the technique in general: An ELISA detects its analyte on a solid surface through an enzyme-linked reagent.

The target of assay [2] is T1, monkey TIM-3 extracellular domain …. In words: ELISA, coated monkey TIM-3 ECD protein, 6.6667 nM antibody.
Assay [3] has as its target T2, monkey TIM-3 on CHOK1 stable cell line (CHOK1-cTIM-3) (monkey).
T2 chain: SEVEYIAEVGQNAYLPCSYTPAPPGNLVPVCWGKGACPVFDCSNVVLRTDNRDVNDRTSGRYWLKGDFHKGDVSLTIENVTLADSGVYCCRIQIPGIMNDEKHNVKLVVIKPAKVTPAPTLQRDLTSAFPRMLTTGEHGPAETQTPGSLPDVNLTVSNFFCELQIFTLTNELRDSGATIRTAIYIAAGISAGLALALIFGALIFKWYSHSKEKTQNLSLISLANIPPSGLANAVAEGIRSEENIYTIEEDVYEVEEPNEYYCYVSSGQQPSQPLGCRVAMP
Description: FACS, CHOK1-cTIM-3 cells, 1.6 nM antibody. In general terms: Flow cytometry measures light scatter and fluorescence of single cells or particles in a stream.

The target in assay [4] is T3, human TIM-3 extracellular domain protein with hFc tag (hTIM-3-hFc) (human, UniProt Q8TDQ0 22-200).
T3 construct: not shown: human IgG Fc fragment (hFc) of the pCpC vector
T3 sequence: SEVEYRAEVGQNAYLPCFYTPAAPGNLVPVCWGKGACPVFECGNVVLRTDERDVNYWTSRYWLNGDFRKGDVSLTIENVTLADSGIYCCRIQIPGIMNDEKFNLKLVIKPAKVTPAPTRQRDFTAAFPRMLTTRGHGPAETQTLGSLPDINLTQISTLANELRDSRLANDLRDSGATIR
Description: ELISA, coated human TIM-3 ECD protein, 0.0001 nM antibody.

The target of assay [5] is T1, monkey TIM-3 extracellular domain …. Description: ELISA, coated monkey TIM-3 ECD protein, 0.0067 nM antibody.

Experimental findings from patent US20220033501A1 (SHANGHAI PHARMAEXPLORER, published 2022) are described below.

B1: 7A4F10 fully human TIM-3 antibody (human IgG4, kappa) (antibody, V domains shown)
VH: EVQLLESGGGLVQPGGSLRLSCAASGFTFRTHLISWVRQAPGKGLEWVAAITGSGGSTYYADSVKGRFIISRDNSKNTLFLQMNSLRAEDTAVYYCAKDGGSGSYDDFWGQGTLVTVSS
VL: ETVLTQSPVTLSLSPGERATLSCRASQSVGSYLAWYQQKPGQAPRLLIYDASNRATGIPARFSGSGSGTDFTLTISSLEPEDFAVYYCQQRSNWPPTFGQGTKVEIK
In the case of B1, the OD450 in assay [1] is 0.13; in assay [2], 3.12; in assay [4] it was 0.08; in assay [5] it was 0.18. This molecule also displayed a Mean fluorescence intensity in assay [3] of 177.

B2: 18D2H2 fully human TIM-3 antibody (human IgG4, kappa) (antibody, V domains shown)
VH: EVQLVESGGDLVQPGGSLRLSCAASGFTFSTYWMTWVRQAPGRGLEWVANIKQDGSAKYYVDSVKGRFTLSRDDAKNSLYLQMNSLRAEDTAVYYCARGSNWFDYWGQGTLVTVSS
VL: ETVMTQSPATLSVSPGERATLSCRANQNVYSNLAWYQQKPGQAPRLLIYDASTRATGFPARFSGSGSGTEFTLTISSLQSEDFAVYYCQQYNNWPLTFGGGTKVEIK
Turning to B2, the OD450 in assay [1] came out at 0.13; in assay [2] it was 3.3; in assay [4], 0.08; in assay [5], 0.33. Further, the Mean fluorescence intensity in assay [3] turned out to be 333.

B3: 39E5H1 fully human TIM-3 antibody (human IgG4, kappa) (antibody, V domains shown)
VH: EVQLVESGGGLVQPGGSLRLSCAASGFTFSSYWMSWVRQAPGKGLEWVANIKRGGSERYYVDSVKGRFTISGDNAKNSVYLQMNSLRAEDTAVYYCARGSNWFDPWGQGTLVTVSS
VL: ETVMTQSPAILSVSPGERATLSCRASQSVYSNLAWYQQKLGQAPRLLIYDASTRATGIPARFSGSGSGTEFTLTISSLQSEDFAVYYCQQYNNWPITFGQGTRLEIK
Take B3: the OD450 in assay [1] turned out to be 0.16; in assay [2] it was 3.35; in assay [4], 0.08; in assay [5], 0.3. The same molecule registered a Mean fluorescence intensity in assay [3] of 315.

B4: 34B6D8 fully human TIM-3 antibody (human IgG4, kappa) (antibody, V domains shown)
VH: EVQLVESGGGLVQPGGSLRLSCAASGFTFSTYWMTWVRQAPGKRLEWVANIKQGGGDKYYVDSVKGRFTISTDNAKNSLYLQMNSLRAEDTAVYYCARGSNWFDPWGQGTLVTVSS
VL: EIVMTQSPATLSMSPGERATLSCRASQSVYDNLAWYQQKPGQAPRLLIYGASTRATGIPARFSGSGSGTEFTLTISSLQSEDFALYYCQQYTHWPITFGQGTRLEIK
With B4, the OD450 was found to be 0.17 in assay [1], 3.39 in assay [2], 0.09 in assay [4] and 0.37 in assay [5]. Besides, the Mean fluorescence intensity in assay [3] was 266.

B5: 215A8F2 fully human TIM-3 antibody (human IgG4, kappa) (antibody, V domains shown)
VH: QVQLQQWGAGLLKPSETLSLTCTVYGGSFSGYYWNWIRQPPGKGLEWLGEINHSGSTNYNPSLKRRVTISVDTSKNQFSLKLSSVTAADTAVYYCARVYYYGPFDFWGQGTLVTVSS
VL: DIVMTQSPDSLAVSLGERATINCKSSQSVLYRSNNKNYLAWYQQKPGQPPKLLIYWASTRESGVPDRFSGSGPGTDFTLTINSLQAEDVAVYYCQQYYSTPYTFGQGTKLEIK
Consider B5, for which the OD450 was found to be 0.13 in assay [1], 3.28 in assay [2], 0.08 in assay [4] and 0.33 in assay [5]. Further, the Mean fluorescence intensity in assay [3] worked out at 252.
